In assay [1] the target is T1, human IL-17C (Homo sapiens, UniProt Q9P0M4).
T1 sequence (Q9P0M4 19-197): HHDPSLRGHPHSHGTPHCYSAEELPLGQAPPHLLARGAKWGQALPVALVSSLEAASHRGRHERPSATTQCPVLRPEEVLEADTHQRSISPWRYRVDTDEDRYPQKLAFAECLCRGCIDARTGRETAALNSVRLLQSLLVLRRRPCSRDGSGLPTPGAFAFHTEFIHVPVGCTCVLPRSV
The assay can be described thus: Binding to human IL-17C and inhibition of IL-17C binding to IL-17RE. The protocol:
(§1) The following working examples were performed using the antibodies MOR12743 and MOR22420 (see Table 1). […] Therefore both antibodies are antagonists of IL-17C in the sense of the present disclosure. MOR12743 is already disclosed and characterized in WO 2013/057241 (U.S. Ser. No. 14/351,162), which is incorporated by reference in its entirety.

In assay [2] the test system is MC903-treated mice. The assay can be described thus: MC903 mouse model of atopic dermatitis. In kind it is in vivo, BALB/c mice. The following applies: 3x10 mg/kg i.p. An excerpt: The pro-inflammatory function of IL-17C in atopic dermatitis was examined in a non-infectious cutaneous inflammation mouse model of atopic dermatitis where topical application of the low-calcemic vitamin D3 analogue MC903 (calcipotriol) induces atopic dermatitis like skin lesion characterized by a red and scaly skin, accompanied by an epidermal hyperplasia and dermal infiltration of various cell types as well as an increase of Th2 cytokine in skin and elevated serum IgE (Li et al., 2006; Li et al, 2009). The MC903 mouse model is a widely accepted and predictable model to mimic the Th2 driven symptoms of atopic dermatitis in vivo.
BALB/c mice (female, 8-week old) were obtained from Janvier Labs (France). Mice were kept on a 12 hours light/dark cycle (0700-1900). Temperature was maintained at 22° C., and food and water were provided ad libitum.
In order to induce an AD-like response, 2 nmol MC903 (Tocris, dissolved in ethanol) was topical applied in a volume of 20 μL on both ears of mice for 5 consecutive days. A non-disease control group received the same quantity of ethanol (EtOH).
The severity of skin inflammation (erythema and thickening) was observed daily. Ear thickness was measured with an electronic caliper (Mitutoyo). Inflammation was further assessed using an in vivo imaging technique. To that end, Prosense 680 probe (1.6 nmol, Perkin Elmer) was administered by intraperitoneal route 24 hours before imaging. Imaging was performed with the Bruker In-vivo Xtreme Imaging System. Images were captured by a deeply cooled 4MP CCD camera (f-stop 1.1, binning 2×2, 5 sec acquisition time, Ex 630 nm, Em 700 nm). For anatomical co-registration, a reflectance image was taken (f-stop 2.8, 0.175 sec acquisition time). All images were taken with a 190×190 field of view and images were analysed using Molecular Imaging Software version 7.1 (Bruker Biospin, Billerica, Mass., USA). For each group, the mean values and standard error of mean (sem) was calculated using for each mouse the mean value of left and right ear.
At sacrifice, samples form ear skin were collected and fixed in 4% formaldehyde before embedding in paraffin. 4 μm-thick slices were stained with hematoxylin and eosin (H&E stain) for histomorphometric evaluation of epidermal thickness by image analysis with Sisn'Com software (France). Five fields per ear (high power field ×20) covering the whole ear from top to bottom were measured, and the 5 values were averaged per ear and per mice (left/right ear). An additional set of tissue slices were prepared for IHC staining of IL-17C using the anti-IL-17C biotinylated MOR12743 antibody (and biotinylated MOR03207 isotype negative control antibody). Processing and staining was essentially done as described above.
Ear skin samples were also taken for analysis of cytokine expression using qPCR or ELISA. […] Ear skin sam pies for quantification at protein level were immediately snap frozen in liquid N2 and stored at −80° C. […] 5 μL of 10-fold diluted cDNA was used in real-time quantitative PCR reactions using SYBR Green technology with gene-specific primers from Qiagen. qPCR was performed on the ViiA™ 7 Real-Time PCR System (Applied Biosystems). Gene expression was normalized to the expression of 3 different house-keeping genes (cyclophilin, b-actin and GAPDH) and expressed as relative mRNA level of specific gene expression as obtained using the 2^−ΔCt method, with ΔCt=Ctgene−Geomean Ct-value (housekeeping genes). […]

For assay [3], the target named is T2, murine IL-17C (Mus musculus, UniProt Q8K4C5).
T2 sequence (Q8K4C5 17-194): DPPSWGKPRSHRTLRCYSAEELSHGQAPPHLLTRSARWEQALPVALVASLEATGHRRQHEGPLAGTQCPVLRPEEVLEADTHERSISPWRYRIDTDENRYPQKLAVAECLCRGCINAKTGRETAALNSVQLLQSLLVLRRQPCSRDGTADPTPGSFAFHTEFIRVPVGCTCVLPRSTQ
The assay can be described thus: Binding to murine IL-17C and inhibition of IL-17C binding to IL-17RE. The protocol:
as §1

B1: MOR22420: anti-IL-17C antibody, binds human IL-17C; VH SEQ ID No.: 21, VL SEQ ID No.: 20 (antibody, V domains shown)
VH: QVQLVQSGAEVKKPGSSVKVSCKASGGTFSSYAISWVRQAPGQGLEWMGTIDPFFGKTYYAQKFQGRVTITADESTSTAYMELSSLRSEDTAVYYCARDVSSISYYFHEYYSDRFDYWGQGTLVTVSS
VL: DIALTQPASVSGSPGQSITISCTGTSSDVGGYEYVNWYQQHPGKAPKLMIYDDSYRPSGVSNRFSGSKSGNTASLTISGLQAEDEADYYCQSTDPHSTVVFGGGTKLTVLGQ
modifications: mab Library
Take B1: in assay [1], the “inhibition of binding of IL-17C to its receptor IL-17RE” value was “inhibit binding of IL-17C to its receptor IL-17RE” and the “specific binding to IL-17C” value was “specifically bind”.

B2: MOR12743: anti-IL-17C antibody, binds murine IL-17C; VH SEQ ID No.: 11, VL SEQ ID No.: 10; disclosed in WO 2013/057241 (antibody, V domains shown)
VH: QVQLVQSGAEVKKPGASVKVSCKASGYTFTSNFIHWVRQAPGQGLEWMGWISPYNGDTNYAQKFQGRVTMTRDTSISTAYMELSRLRSEDTAVYYCARESVYYGSDYGYNGMDIWGQGTLVTVSS
VL: DIELTQPPSVSVSPGQTASITCSGDNLGEEYVSWYQQKPGQAPVLVIYDDTKRPSGIPERFSGSNSGNTATLTISGTQAEDEADYYCASWDLWSVEVFGGGTKLTVLGQ
modifications: mab Library
In the case of B2, in assay [2] (day 5, Prosense 680 probe, FIG. 6), the “ear inflammation as assessed by in vivo imaging” value is listed as “significantly reduced”. Besides, the ear redness entry in assay [2] (day 8, vs MC903+MOR03207 isotype control) is given as “less red”. Also, the “ear swelling (ear thickness)” value in assay [2] (day 8, vs MC903+MOR03207 isotype control, FIG. 5) is “significantly less swollen”. In addition, in assay [2] (histology H&E at sacrifice, FIG. 7), the “epidermal hyperplasia (epidermal thickness)” value is recorded as “partially reduced”. The “TSLP expression in ears” value in assay [2] (protein, ELISA, FIG. 8) was “significantly inhibited”. For the same molecule, in assay [3], the “inhibition of binding of IL-17C to its receptor IL-17RE” value is recorded as “inhibit binding of IL-17C to its receptor IL-17RE” and the “specific binding to IL-17C” value is “specifically bind”.

The values above are taken from patent US10604566B2, “Antagonists of IL-17C for the treatment and/or prevention of atopic dermatitis” (MORPHOSYS AG, priority 2015, dated 2020).
